Measured values: patent US20150344888A1 (published 2015)

B1: peptide USP30-8 (peptide)
peptide: VSRCYIFWNEMFCDVE
B2: pep8 (peptide)
peptide: VSRCYIFWNEMFCDVE

How the values were obtained:
Test in all cases: ubiquitin-AMC enzyme inhibition
UCHL3 = biological target: T1, UCHL3 (UniProt P15374 1-230)
T1 chain: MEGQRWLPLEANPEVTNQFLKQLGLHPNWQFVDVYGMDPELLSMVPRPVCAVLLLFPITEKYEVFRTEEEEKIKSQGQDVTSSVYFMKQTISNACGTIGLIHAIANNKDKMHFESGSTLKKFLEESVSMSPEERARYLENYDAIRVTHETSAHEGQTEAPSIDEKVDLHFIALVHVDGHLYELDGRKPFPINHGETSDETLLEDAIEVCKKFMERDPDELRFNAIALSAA

USP2 = biological target: T2, USP2 (UniProt O75604 259-605)
T2 chain: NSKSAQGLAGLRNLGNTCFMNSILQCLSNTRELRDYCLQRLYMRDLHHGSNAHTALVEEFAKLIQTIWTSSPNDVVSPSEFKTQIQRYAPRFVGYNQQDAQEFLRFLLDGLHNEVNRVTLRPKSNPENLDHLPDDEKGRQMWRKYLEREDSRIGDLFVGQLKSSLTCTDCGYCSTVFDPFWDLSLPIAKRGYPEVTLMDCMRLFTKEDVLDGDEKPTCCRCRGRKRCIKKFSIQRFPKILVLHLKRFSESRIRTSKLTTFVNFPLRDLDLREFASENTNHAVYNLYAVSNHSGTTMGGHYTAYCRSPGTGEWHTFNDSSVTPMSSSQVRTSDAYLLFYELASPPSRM

USP5 = biological target: T3, USP5 (UniProt P45974 1-858)
T3 chain: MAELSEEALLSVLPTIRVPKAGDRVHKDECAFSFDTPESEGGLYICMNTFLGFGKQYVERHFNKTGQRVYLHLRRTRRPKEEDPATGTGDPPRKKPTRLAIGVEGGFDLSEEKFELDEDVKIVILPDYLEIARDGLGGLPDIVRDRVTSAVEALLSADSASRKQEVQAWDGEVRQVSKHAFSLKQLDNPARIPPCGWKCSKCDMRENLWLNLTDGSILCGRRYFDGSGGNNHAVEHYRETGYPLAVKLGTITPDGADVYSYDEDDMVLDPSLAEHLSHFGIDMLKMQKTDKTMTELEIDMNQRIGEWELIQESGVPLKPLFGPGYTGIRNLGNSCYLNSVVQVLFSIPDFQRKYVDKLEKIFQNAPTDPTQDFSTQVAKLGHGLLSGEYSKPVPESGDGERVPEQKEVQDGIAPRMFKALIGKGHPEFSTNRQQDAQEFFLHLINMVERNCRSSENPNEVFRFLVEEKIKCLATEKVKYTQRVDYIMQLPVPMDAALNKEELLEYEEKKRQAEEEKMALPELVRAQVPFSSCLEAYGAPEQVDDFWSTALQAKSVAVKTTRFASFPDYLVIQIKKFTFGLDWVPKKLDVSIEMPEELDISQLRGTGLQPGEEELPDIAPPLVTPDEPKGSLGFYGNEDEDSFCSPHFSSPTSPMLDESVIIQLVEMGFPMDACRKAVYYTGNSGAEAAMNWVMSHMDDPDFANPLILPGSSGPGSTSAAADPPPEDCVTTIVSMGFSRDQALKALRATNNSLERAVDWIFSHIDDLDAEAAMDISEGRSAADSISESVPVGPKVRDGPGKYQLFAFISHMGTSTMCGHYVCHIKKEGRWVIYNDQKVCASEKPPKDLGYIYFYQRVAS

[1] = biological target: T4, USP30 (active enzyme in the ubiquitin-AMC assay) (UniProt Q70CQ3 57-517)
T4 chain: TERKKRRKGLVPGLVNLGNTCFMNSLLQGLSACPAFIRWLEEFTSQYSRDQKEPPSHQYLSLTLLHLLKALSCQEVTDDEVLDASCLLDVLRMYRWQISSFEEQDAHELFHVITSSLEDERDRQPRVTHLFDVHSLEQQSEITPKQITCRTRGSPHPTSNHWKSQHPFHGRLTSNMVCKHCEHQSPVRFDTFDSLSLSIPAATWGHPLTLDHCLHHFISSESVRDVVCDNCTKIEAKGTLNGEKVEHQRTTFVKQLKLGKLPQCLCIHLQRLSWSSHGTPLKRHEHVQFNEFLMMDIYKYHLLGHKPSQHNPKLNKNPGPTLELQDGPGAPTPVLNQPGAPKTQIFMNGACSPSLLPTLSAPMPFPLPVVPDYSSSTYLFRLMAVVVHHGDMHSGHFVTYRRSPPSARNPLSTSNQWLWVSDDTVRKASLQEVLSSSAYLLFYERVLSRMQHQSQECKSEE

USP7 = biological target: USP7

Binder	IC50 (UCHL3) [µM]	IC50 (USP2) [µM]	IC50 (USP5) [µM]	IC50 [1] [µM]	IC50 (USP7) [µM]
B1	194	~200	42.9	121	–
B2	–	–	–	–	31.7
